Experimental findings from patent publication US20220402980A1, “CHROMOGRANIN A-DERIVED PEPTIDES AND USES THEREOF” (OSPEDALE SAN RAFFAELE S.R.L., priority 2019, published 2022) are described below.

The test deals with wild-type human integrin α5β1 (octyl β-D-glucopyranoside preparation) (human), P08648. The test can be described thus: competitive binding assay on α5β1-coated plates, isoDGR/STV-HRP probe.
Chain of wild-type human integrin α5β1 (octyl β-D-glucopyranoside preparation) (human), P08648 (P08648 42-1049, chain 1 of 2): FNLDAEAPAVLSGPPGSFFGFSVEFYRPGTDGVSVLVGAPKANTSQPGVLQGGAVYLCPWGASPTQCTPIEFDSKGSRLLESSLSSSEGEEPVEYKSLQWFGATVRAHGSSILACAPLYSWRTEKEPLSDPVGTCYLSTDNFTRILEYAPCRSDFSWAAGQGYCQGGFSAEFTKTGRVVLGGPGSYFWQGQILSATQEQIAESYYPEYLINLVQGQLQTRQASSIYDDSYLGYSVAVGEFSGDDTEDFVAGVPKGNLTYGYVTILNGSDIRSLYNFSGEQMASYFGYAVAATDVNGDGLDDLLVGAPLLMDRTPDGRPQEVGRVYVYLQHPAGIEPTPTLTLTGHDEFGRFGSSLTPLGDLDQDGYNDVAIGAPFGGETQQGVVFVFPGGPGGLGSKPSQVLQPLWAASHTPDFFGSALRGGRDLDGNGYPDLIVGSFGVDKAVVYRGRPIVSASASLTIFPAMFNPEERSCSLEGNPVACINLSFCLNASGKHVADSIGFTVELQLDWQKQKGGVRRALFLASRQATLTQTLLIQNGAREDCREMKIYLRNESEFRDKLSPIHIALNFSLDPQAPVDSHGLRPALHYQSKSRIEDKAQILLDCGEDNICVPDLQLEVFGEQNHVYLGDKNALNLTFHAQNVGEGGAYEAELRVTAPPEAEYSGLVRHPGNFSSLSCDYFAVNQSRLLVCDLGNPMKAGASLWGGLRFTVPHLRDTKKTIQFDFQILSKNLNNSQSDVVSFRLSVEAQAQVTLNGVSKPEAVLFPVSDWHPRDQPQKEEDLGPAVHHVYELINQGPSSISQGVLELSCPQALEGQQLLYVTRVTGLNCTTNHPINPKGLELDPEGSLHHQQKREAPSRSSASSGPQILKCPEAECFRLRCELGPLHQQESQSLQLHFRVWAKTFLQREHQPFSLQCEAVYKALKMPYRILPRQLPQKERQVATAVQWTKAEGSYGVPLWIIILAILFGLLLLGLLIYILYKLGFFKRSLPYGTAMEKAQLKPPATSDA
Chain of wild-type human integrin α5β1 (octyl β-D-glucopyranoside preparation) (human), P08648 (P05556 21-798, chain 2 of 2, further chain): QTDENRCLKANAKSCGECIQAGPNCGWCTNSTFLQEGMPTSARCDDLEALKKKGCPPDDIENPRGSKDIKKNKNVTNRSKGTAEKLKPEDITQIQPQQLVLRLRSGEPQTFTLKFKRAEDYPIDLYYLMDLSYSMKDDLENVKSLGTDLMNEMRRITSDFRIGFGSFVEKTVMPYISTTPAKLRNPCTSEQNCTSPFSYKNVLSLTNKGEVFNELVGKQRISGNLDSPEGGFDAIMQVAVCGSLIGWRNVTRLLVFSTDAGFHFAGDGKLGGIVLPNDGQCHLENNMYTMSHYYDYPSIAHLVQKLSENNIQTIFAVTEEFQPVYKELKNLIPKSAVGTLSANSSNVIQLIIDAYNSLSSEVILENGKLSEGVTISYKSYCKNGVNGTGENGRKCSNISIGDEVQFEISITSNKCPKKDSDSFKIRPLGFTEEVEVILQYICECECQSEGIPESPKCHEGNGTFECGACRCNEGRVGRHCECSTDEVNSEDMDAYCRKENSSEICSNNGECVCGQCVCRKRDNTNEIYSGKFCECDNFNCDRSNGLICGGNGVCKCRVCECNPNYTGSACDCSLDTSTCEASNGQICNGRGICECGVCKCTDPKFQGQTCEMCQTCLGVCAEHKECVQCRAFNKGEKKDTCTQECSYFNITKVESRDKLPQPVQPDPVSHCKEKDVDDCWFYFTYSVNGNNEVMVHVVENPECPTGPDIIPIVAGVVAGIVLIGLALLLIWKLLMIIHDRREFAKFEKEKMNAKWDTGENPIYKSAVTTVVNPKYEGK

With NAVPNLRGDLQVLAQKVART (modifications not checked) [foot and mouth disease virus-derived peptide A20FMDV2], the Ki came out at 2320 nM.

As a reminder, the Ki is a dissociation constant, usually derived from enzyme kinetics or from competition with a known ligand. Read a high Ki as a looser hold on the target.
